Literature values, collected in publication PMC7736282.

Biological target: Lys175 (UniProt position 175, VASSLKWRCPF)
Test: NMR

In the case of “VP39, cap-specific mRNA (nucleoside-2'-O-)-methyltransferase / poly(A) polymerase small subunit (Vaccinia virus)”, the pKa is given as 8.5.
